{
  "source": "patent US8318640B2",
  "about": "“Methods for selective targeting” (Danisco US Inc., priority 2000, dated 2012)",
  "key": {"[1]": {"molecular_target": "T1, (h) TNF-α (Homo sapiens, UniProt P01375)", "T1 sequence (P01375 77-233 limits assumed)": "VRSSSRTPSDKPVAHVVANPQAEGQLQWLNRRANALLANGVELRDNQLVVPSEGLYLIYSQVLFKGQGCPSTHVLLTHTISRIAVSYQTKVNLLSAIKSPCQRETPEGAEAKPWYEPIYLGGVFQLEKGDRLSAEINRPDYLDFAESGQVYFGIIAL", "experiment": "Selective targeting of a phage-displayed 7-mer library on TNF-α, PCR identification of bound clones", "type": "binding", "set-up": "purchased BioSource International; Camarillo, Calif", "details": "number of multiple times this amino acid sequence occurred out of 24 clones sequenced; binds TNF-alpha and not SuperBlock", "experimental": "A thin-walled PCR tube was coated with the target human (h) TNF-α (BioSource International; Camarillo, Calif.) by incubating 100 μl of 0.5 mg/ml purified TNF-α in PBS overnight at 4° C. in the PCR tube. Excess unbound TNF-α was removed, and the tube was coated overnight at 4° C. with 100 μl of SuperBlock™ blocking buffer (Pierce: Rockford, Ill.) in Tris buffered saline (TBS). The anti-target (SuperBlock™ blocking buffer) was prepared in separate PCR tubes coated overnight at 4° C. with 100 μl of SuperBlock™.\nUnbound phage were removed by washing the tube 5 times with 150 μl PBS containing 0.1% Tween-20 at room temperature. Low affinity binders were washed away by incubating with 60 μl of 0.2 M Glycine (pH 2.2) for 6 minutes followed by neutralization with 9 μl 1 M Tris-Cl (pH 9.1). The acid washed population was retained for further analysis. The tube was then washed again 3 times with 150 μl of PBS.\nTo the remaining phage-peptides bound to the TNF-α, 54 μl of Lysis Buffer A (10 mM Tris-Cl, pH 8.4, 0.1% Triton-X100) and an AmpliWax™ PCR gem (Perkin Elmer, Norwalk, USA.) was added. The tube was heated at 95° C. for 15 min and then allowed to cool. The following PCR reagents were then added:\nPCR amplification was performed using 20 cycles of denaturation at 94° C. for 15 sec, annealing at 55° C. for 20 sec, and extension at 72° C. for 30 sec. The sequences of the primers (synthesized by GIBCO BRL) were: […]\nThe PCR product (267 base pairs (bp)) was analyzed on an 8% polyacrylamide gel along with the PCR product from a single phage peptide clone (positive control) and molecular weight markers (FIG. 2). […] This was due to too much template (i.e. phage) in the PCR reaction, and can be alleviated by decreasing the phage concentration or by decreasing the number of PCR cycles (FIG. 3). To decrease the amount of the 500-700 bp diffuse band, the PCR product was diluted appropriately for subsequent PCR reactions from this starting material to generate more products for sub-cloning purposes. Once the desired product (267 bp) was amplified, it was digested with Eagl and Acc651 restriction endonucleases to produce a 45 bp fragment containing the DNA coding for the random peptide. The 45 bp fragment was then sub-cloned into the M13KE vector (New England Biolabs; Beverly, Mass.) at the EagI and Acc65I restriction sites using standard techniques (Sambrook, et al., (1989) supra). After ligating the 45 bp fragment into the M13KE vector, the ligation reaction was transformed into chemically competent ER2537 E. coli cells. The cells were made competent with calcium chloride using a standard protocol (Sambrook, et al., (1989) supra). The M13 DNA was isolated from various transformants using a modified protocol from New England Biolab's protocol for M13 DNA preparation and then sequenced. The modification includes the use of 96-well plates as opposed to tubes."}, "[2]": {"experiment": "ELISA of biotinylated peptide binding to skin", "set-up": "species or system human", "details": "200 μM biotinylated peptide in 2% body wash; FIG. 9", "excerpt": "(§1) Peptide sequences identified in Examples 13 and 14 along with a random control peptide were C-terminally labeled with the sequence GGGK (biotin). The sequence LESTPKMK (SEQ ID NO: 115) contains the consensus sequence LEST and was isolated on hair. FTQSLPR (SEQ ID NO: 116) contains the consensus sequence TQSL and was isolated on skin. YGGFMTSE (SEQ ID NO: 117) is a control peptide.\n(§2) Dark brown hair (3″ long, 4 each), moistened with 2% body wash and pre-equilibrated human skin tissues, were placed in the wells of a 24 well plate. 1 ml of a 200 μM solution of the biotinylated peptide in 2% Neutrogena body wash was added to the hair and skin samples and incubated 30 min at room temperature with gentle agitation. The solution was then pipetted off and the hair and skin samples transferred with clean tweezers to a 50 ml conical tube, washed once with 50 ml of 2% body wash, twice with 50 ml of water, and once with 50 ml of PBS; each wash step took 5 min and was performed on a rotary shaker at 20 rpm. The hair and skin samples were then transferred with clean tweezers to a fresh 24 well plate where 1 ml of streptavidin conjugated horseradish peroxidase (diluted 1/1000 in PBS) was added for 1 hr at room temperature under gentle rocking. Excess streptavidin HRP was removed by washing twice with 50 ml of PBS (5 min, 20 rpm each) in a 50 mL conical tube. […]"}, "[3]": {"experiment": "Ni-chelated peptide binding to collar soil on cotton or cotton alone, OPD/H2O2 absorbance assay", "experimental": "A phage peptide sequence HTFQHQWTHQTR, (SEQ ID NO: 27) that binds to collar soil on cotton was identified after five rounds of biopanning as described in example 5 except that phage peptides were eluted by acid after each round using the methods described in Scott and Smith (1990) Science 249:386. The selectivity (stain vs. cotton binding) and affinity (koff) were measured for the corresponding peptide binding to collar soil as follows: A 1 mM solution of Ni chelated GGHTFQHQWTHQTR (SEQ ID NO: 28) was incubated with collar soil on cotton or cotton alone for 90 minutes at room temperature with shaking in a microtiter plate. A control peptide chelate Ni GGH was also tested under the same conditions. After pipeting off the incubation solution from the well, fabric swatches were rinsed in 200 μL water with shaking for 3 minutes. The residual bound peptide was assayed by adding 200 μL o-phenylenediamine (OPD) and 50 μL of 100 mM H2O2 and measuring the absorbance of the oxidized OPD at 420 nm. As summarized in Table 5 and FIG. 7, the selectivity ratio of stain binding to fabric is less than or equal to ≦3:1 and the affinity as measured by koff=1×10^−3 sec^−1."}, "[4]": {"experiment": "Release of 14C-labeled peptide from collar soil on polyester cotton in Tide detergent, scintillation counting", "type": "binding", "experimental": "Soiled shirt collars (65% polyester: 35% cotton) containing the target (collar soil) and anti-target along with the control anti-target (unstained polyester:cotton from the same shirt) were cut to a diameter of 7/32″ and placed into a 96-well microtiter plate (Millipore Corp., […] Durapore membrane; Cat. No. MAGV N22 50). Serial dilutions of a 400 μM stock solution of a soil targeting peptide SISSTPRSYHWT (SEQ ID NO: 20) and a peptide control NFFPTWILPEHT (SEQ ID NO: 78) both terminally labelled with ^14C-glycine were added to 1 g/L Tide detergent solutions (Procter and Gamble, Cincinnati, Ohio) and 60 μL aliquots were placed into the wells of the microtiter plate. The plate was incubated with shaking for 30 minutes at 32° C. followed by suction filtering of excess unbound radiolabeled peptide (Vacuum manifold; Millipore Corp. Cat. No. MAVM 096 OR). The samples were rinsed three times with 200 μL of distilled water, with shaking in between rinses, over a period of about 40 minutes. The remaining radioactivity bound to the samples was quantitated by liquid scintillation counting in a Wallac microbeta counter. […] This corresponds to a rate constant for release of the soil targeting peptide koff≦2×10^−4 sec^−1."}, "[5]": {"experiment": "ELISA of biotinylated peptide binding to hair", "set-up": "species or system human", "details": "200 μM biotinylated peptide in 2% body wash; FIG. 9", "excerpt": "as §1, §2"}, "[6]": {"molecular_target": "T1, (h) TNF-α", "experiment": "IAsys biosensor binding and dissociation of phage clone on immobilized TNF-α", "experimental": "The binding and dissociation of phage clone A1, amino acid sequence: RYWQDIP; Table 1, (SEQ ID NO: 3) to TNF-α was monitored using an IAsys AutoPlus Biosensor following the Labsystems Affinity Sensors IAsys Protocol 2.4 ‘Immobilization to Protein Layer: Thiol coupling to avidin’ (Thermo BioAnalysis Corp. Franklin, Mass.). Two cuvettes were first coated with avidin and one (the control) was then blocked with biotin. This was followed by activation of the lysine groups. A 15 μl aliquot of a 1 mg/ml (h) TNF-α solution was added to each cuvette. […] After blocking and washing, phage clone A1, RYWQDIP (SEQ ID NO: 3) was added to give a final titer of 5×10^11 pfu/ml.\nThe dissociation of the phage from the TNF-α is very slow with the dissociation constant estimated as koff<10^−4 sec^−1 (10 mM HEPES/0.05% Tween). Washing with a 10× buffer concentrate (at the 70 min time point) only removed a small portion of the phage."}},
  "note": "Square brackets hold non-standard residues; d marks the D form. Ends that are not written are not given here. 14C‑Gly = 14C-labelled glycine",
  "data": [
    {"substance": "APEPILA (peptides screened from a phage display random peptide library) [Clone T2]", "values": [
      {"measurement": "Frequency", "setting": "[1]", "result": 7}
    ]},
    {"substance": "ASTVGGL (peptides screened from a phage display random peptide library) [Clone T6]", "values": [
      {"measurement": "Frequency", "setting": "[1]", "result": 2}
    ]},
    {"substance": "ATFPNQS (peptides screened from a phage display random peptide library) [Clone T5]", "values": [
      {"measurement": "Frequency", "setting": "[1]", "result": 2}
    ]},
    {"substance": "DMIMVSI (peptides screened from a phage display random peptide library) [Clone T3]", "values": [
      {"measurement": "Frequency", "setting": "[1]", "result": 3}
    ]},
    {"substance": "FTQSLPR (peptides screened from a phage display random peptide library)", "values": [
      {"measurement": "ELISA binding to skin versus hair", "setting": "[2]", "result": "selectively targets skin and not hair"}
    ]},
    {"substance": "GGHTFQHQWTHQTR (peptides screened from a phage display random peptide library)", "values": [
      {"measurement": "koff", "setting": "[3]; Ni-chelated peptide, dissociation from collar soil and the corresponding cotton fabric", "result": 0.001, "unit": "s⁻¹"},
      {"measurement": "Affinity 10^−4 koff (sec^−1)", "setting": "[3]; Table 5, Biopanning, 5 rounds of selection", "result": "10 10^−4 sec^−1"}
    ]},
    {"substance": "GSISSTPRSYHWT ([14C‑Gly]SISSTPRSYHWT)", "values": [
      {"measurement": "Affinity 10^−4 koff (sec^−1)", "setting": "[4]; Table 5, Selective Targeting (PCR), 1 round of selection", "result": "≦ 2 10^−4 sec^−1"}
    ]},
    {"substance": "LESTPKMK (peptides screened from a phage display random peptide library)", "values": [
      {"measurement": "ELISA binding to hair", "setting": "[5]", "result": "binds to hair"}
    ]},
    {"substance": "NFFPTWILPEHT (peptides screened from a phage display random peptide library) [random peptide control, reference compound]", "values": [
      {"measurement": "affinity or selectivity for stained fabric", "setting": "[4]; 1 g/L Tide, same assay, FIG. 6B", "result": "no affinity or selectivity"}
    ]},
    {"substance": "RYWQDIP (peptides screened from a phage display random peptide library) [Clone T1]", "values": [
      {"measurement": "Frequency", "setting": "[1]", "result": 8},
      {"measurement": "koff (dissociation of the phage from the TNF-α)", "setting": "[6]; 10 mM HEPES/0.05% Tween", "result": "< 10^−4 sec^−1"},
      {"measurement": "binding of phage to immobilized TNF-α", "setting": "[6]; IAsys cuvette, final titer 5×10^11 pfu/ml", "result": "significant binding"}
    ]},
    {"substance": "SISSTPRSYHWT (peptides screened from a phage display random peptide library) [Clone C4]", "values": [
      {"measurement": "total radiolabel remaining bound to the stained fabric", "setting": "[4]; 1 g/L Tide, after rinsing for 40 minutes", "result": "greater than 50%"},
      {"measurement": "koff, rate constant for release of the soil targeting peptide", "setting": "[4]; 1 g/L Tide, collar soil on polyester cotton", "result": "≤ 0.0002", "unit": "s⁻¹"}
    ]},
    {"substance": "TMLPYRP (peptides screened from a phage display random peptide library) [Clone T7]", "values": [
      {"measurement": "Frequency", "setting": "[1]", "result": 2}
    ]},
    {"substance": "WTPKPTQ (peptides screened from a phage display random peptide library) [Clone T4]", "values": [
      {"measurement": "Frequency", "setting": "[1]", "result": 2}
    ]}
  ]
}
